Experiments:
ECF-PanT = system: T1, ECF-PanT; assay: initial rate of radiolabelled uptake into proteoliposomes; format: biochemical, Lactobacillus delbrueckii subsp. bulgaricus; settings: 5 mM lumenal Mg-ATP, pH 7.5, 30 °C; labelled compound (3H tracer); read-out: apparent Km
T1 construct: four-subunit complex, 10xHis-TEV on EcfA, Strep on PanT; expressed in E. coli MC1061; purified in DDM, reconstituted in proteoliposomes; ~120 kDa; Energy-coupling factor transporter transmembrane protein EcfT

ECF-FolT2 = system: T2, ECF-FolT2; assay: as above; format: biochemical, Lactobacillus delbrueckii subsp. bulgaricus; settings: 10 mM lumenal Mg-ATP, pH 7.5, 30 °C; labelled compound (3H tracer); read-out: apparent Km
T2 construct: four-subunit complex, 10xHis-TEV on EcfA, Strep on FolT2; expressed in E. coli MC1061; purified in DDM, reconstituted in proteoliposomes; ~120 kDa; Energy-coupling factor transporter transmembrane protein EcfT

[1] = substrate: Nc1ncnc2c1ncn2[C@@H]1O[C@H](COP(=O)(O)OP(=O)(O)OP(=O)(O)O)[C@@H](O)[C@H]1O; assay: initial rate of radiolabelled pantothenate uptake into proteoliposomes at varied lumenal ATP; format: biochemical, Lactobacillus delbrueckii; settings: 100 nM pantothenate, Mg2+, pH 7.5, 30 °C, sigmoidal, cooperative
[2] = substrate: Nc1ncnc2c1ncn2[C@@H]1O[C@H](COP(=O)(O)OP(=O)(O)OP(=O)(O)O)[C@@H](O)[C@H]1O; assay: initial rate of radiolabelled folate uptake into proteoliposomes at varied lumenal ATP; format: biochemical, Lactobacillus delbrueckii; settings: 100 nM folate, Mg2+, pH 7.5, 30 °C, sigmoidal, cooperative
[3] = biological target: T3, ECF-PanT (whole pantothenate transporter complex: EcfA, EcfA', EcfT, PanT) (Lactobacillus delbrueckii subsp. …); assay: crystal structure; ECF-PanT-Nanobody 81 complex at 5 mg/mL with 5 mM MgATPγS; 70 mM sodium citrate pH 4.5, 22% (v/v) PEG300, 5°C; 2.8 Å, space group P1, two copies of the complex in the asymmetric unit; settings: both partners purified
T3 construct: Four subunits, Mw ~120 kDa as printed for a full ECF-transporter complex; source: SEC in DDM; copies: + + +
T3 chain 1: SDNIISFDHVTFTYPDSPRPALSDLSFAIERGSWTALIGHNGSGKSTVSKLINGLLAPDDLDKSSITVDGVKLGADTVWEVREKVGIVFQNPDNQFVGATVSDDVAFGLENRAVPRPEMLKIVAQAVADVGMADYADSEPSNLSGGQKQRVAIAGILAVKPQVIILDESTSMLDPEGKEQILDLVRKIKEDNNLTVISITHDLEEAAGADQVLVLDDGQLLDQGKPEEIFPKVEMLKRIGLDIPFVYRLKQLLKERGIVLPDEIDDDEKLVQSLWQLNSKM
T3 chain 2: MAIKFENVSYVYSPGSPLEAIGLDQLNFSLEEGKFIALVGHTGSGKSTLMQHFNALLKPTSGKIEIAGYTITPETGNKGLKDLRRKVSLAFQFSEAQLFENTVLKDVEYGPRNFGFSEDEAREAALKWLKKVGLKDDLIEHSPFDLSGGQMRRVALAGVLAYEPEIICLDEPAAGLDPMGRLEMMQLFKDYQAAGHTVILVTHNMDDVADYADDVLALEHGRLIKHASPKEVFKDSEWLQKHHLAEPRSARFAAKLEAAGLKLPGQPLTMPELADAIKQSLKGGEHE
T3 chain 3: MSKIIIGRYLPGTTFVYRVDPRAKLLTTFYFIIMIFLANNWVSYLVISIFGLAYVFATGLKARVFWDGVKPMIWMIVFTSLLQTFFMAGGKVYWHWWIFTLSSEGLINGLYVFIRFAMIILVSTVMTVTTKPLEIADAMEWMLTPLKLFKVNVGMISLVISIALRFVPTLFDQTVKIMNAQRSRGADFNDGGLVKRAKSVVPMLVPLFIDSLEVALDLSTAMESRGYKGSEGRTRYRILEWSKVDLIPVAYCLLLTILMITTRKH

In the case of `CC(C)(CO)[C@@H](O)C(=O)NCCC(=O)O` [pantothenate], the Km (ECF-PanT) is reported as 0.046 ± 0.011 µM.

Molecule `Nc1nc2ncc(CNc3ccc(C(=O)N[C@@H](CCC(=O)O)C(=O)O)cc3)nc2c(=O)[nH]1` [folate] has a Km (ECF-FolT2) of 0.082 ± 0.02 µM.

B1: ECF-PanT (Lactobacillus delbrueckii subsp. bulgaricus ATCC 11842 = JCM 1002) (protein)
chain 1: MSDNIISFDHVTFTYPDSPRPALSDLSFAIERGSWTALIGHNGSGKSTVSKLINGLLAPDDLDKSSITVDGVKLGADTVWEVREKVGIVFQNPDNQFVGATVSDDVAFGLENRAVPRPEMLKIVAQAVADVGMADYADSEPSNLSGGQKQRVAIAGILAVKPQVIILDESTSMLDPEGKEQILDLVRKIKEDNNLTVISITHDLEEAAGADQVLVLDDGQLLDQGKPEEIFPKVEMLKRIGLDIPFVYRLKQLLKERGIVLPDEIDDDEKLVQSLWQLNSKM
chain 2: T3 chain 2
notes: with Energy-coupling factor transporter transmembrane protein EcfT; Pantothenate ECF transporter S component PanT
B1 gave a Km [1] of 5600 ± 1000 µM.

B2: ECF-FolT2 (Lactobacillus delbrueckii subsp. bulgaricus ATCC 11842 = JCM 1002) (protein)
chain 1: B1 chain 1
chain 2: T3 chain 2
notes: with Energy-coupling factor transporter transmembrane protein EcfT; Folate ECF transporter S component FolT2
B2 showed a Km [2] of 5600 ± 1700 µM.

B3: nanobody CA14381 (Nb81) (VHH)
VHH: QVQLVESGGGLVQPGGSLRLSCTASGFTLDDYAIGWFRQAPGKEREGISCISRSGSSTTYADSVKGRFTISRDRAENTVYLQMNSLKPEDTADYYCAATPVWYWSCAVKVGPYDYWGQGTQVTVSS
notes: the nanobody chain of PDB 6ZG3 (solved here); Llama (Lama glama) nanobody selected by phage display against ECF-PanT; Cloned in a Golden Gate variant of pMESy4 (GenBank KF415192); also called nanobody 81; Nanobody 81; source: E. coli WK6 periplasm, purified (Ni-Sepharose, desalting)
B3: binds [3].

From article PMC7755397, “In vitro reconstitution of dynamically interacting integral membrane subunits of energy-coupling factor transporters” (eLife, 2020)
